From patent USRE49099 (Bayer, dated 2022)
Residue numbers refer to the chain shown, from its start.

B1: Hu1573-2 (antibody, V domains shown)
VH: EVQLVESGGGLVQPGGSLRLSCAASGFTFSNYYLNWVRQAPGKGLEWVGDIRLKSNNYEKHYAESVKGRFTISRDDSKNSLYLQMNSLKTEDTAVYYCIREGDYFDYWGQGTTVTVSS
VL: DIVLTQTPLSLSVTPGQPASISCRASESVDSFGATFMHWYLQKPGQPPQLLIYLASNLESGVPDRFSGSGSRTDFTLKISRVEAEDVGVYYCQQNNEDPYTFGQGTKLEIKR
notes: Humanized IgG, human gamma 1 / kappa constant regions by vectors pCP-hCg1 and pCP-hck; also called H1573VH.1A + H1573Vk.2C
B2: Hu1573-1 (antibody, V domains shown)
VH: B1 VH with I99A
VL: B1 VL
notes: Humanized IgG, human gamma 1 / kappa constant regions by vectors pCP-hCg1 and pCP-hck; also called H1573VH.1 + H1573Vk.2C
B3: Hu1573-12 (antibody, V domains shown)
VH: B1 VH with G49A, L81V
VL: B1 VL with L4M, R72G
notes: Humanized IgG, human gamma 1 / kappa constant regions by vectors pCP-hCg1 and pCP-hck; also called H1573VH.1E + H1573Vk.2
B4: Hu1573-17 (antibody, V domains shown)
VH: B1 VH with G49A, N79S, L81V
VL: B1 VL with L4M
notes: Humanized IgG, human gamma 1 / kappa constant regions by vectors pCP-hCg1 and pCP-hck; also called H1573VH.1F + H1573Vk.2B
B5: Hu1573-3 (antibody, V domains shown)
VH: B1 VH with L81V
VL: B1 VL with L4M, R72G
notes: Humanized IgG, human gamma 1 / kappa constant regions by vectors pCP-hCg1 and pCP-hck; also called H1573VH.1B + H1573Vk.2
B6: Hu1573-11 (antibody, V domains shown)
VH: B1 VH with N79S
VL: B1 VL with L4M
notes: Humanized IgG, human gamma 1 / kappa constant regions by vectors pCP-hCg1 and pCP-hck; also called H1573VH.1D + H1573Vk.2B
B7: Hu1573-16 (antibody, V domains shown)
VH: B1 VH with G49A, N79S, L81V
VL: B1 VL with R72G
notes: Humanized IgG, human gamma 1 / kappa constant regions by vectors pCP-hCg1 and pCP-hck; also called H1573VH.1F + H1573Vk.2A
B8: Hu1573-9 (antibody, V domains shown)
VH: B1 VH with N79S
VL: B1 VL with L4M, R72G
notes: Humanized IgG, human gamma 1 / kappa constant regions by vectors pCP-hCg1 and pCP-hck; also called H1573VH.1D + H1573Vk.2
B9: Hu1573-7 (antibody, V domains shown)
VH: B1 VH with G49A
VL: B1 VL with R72G
notes: Humanized IgG, human gamma 1 / kappa constant regions by vectors pCP-hCg1 and pCP-hck; also called H1573VH.1C + H1573Vk.2A
B10: Hu1573-13 (antibody, V domains shown)
VH: B1 VH with G49A, L81V
VL: B1 VL with R72G
notes: Humanized IgG, human gamma 1 / kappa constant regions by vectors pCP-hCg1 and pCP-hck; also called H1573VH.1E + H1573Vk.2A
B11: Hu1573-4 (antibody, V domains shown)
VH: B1 VH with L81V
VL: B1 VL with R72G
notes: Humanized IgG, human gamma 1 / kappa constant regions by vectors pCP-hCg1 and pCP-hck; also called H1573VH.1B + H1573Vk.2A
B12: Hu1573-6 (antibody, V domains shown)
VH: B1 VH with G49A
VL: B1 VL with L4M, R72G
notes: Humanized IgG, human gamma 1 / kappa constant regions by vectors pCP-hCg1 and pCP-hck; also called H1573VH.1C + H1573Vk.2
B13: Hu1573-15 (antibody, V domains shown)
VH: B1 VH with G49A, N79S, L81V
VL: B1 VL with L4M, R72G
notes: Humanized IgG, human gamma 1 / kappa constant regions by vectors pCP-hCg1 and pCP-hck; also called H1573VH.1F + H1573Vk.2
B14: Hu1573-14 (antibody, V domains shown)
VH: B1 VH with G49A, L81V
VL: B1 VL with L4M
notes: Humanized IgG, human gamma 1 / kappa constant regions by vectors pCP-hCg1 and pCP-hck; also called H1573VH.1E + H1573Vk.2B
B15: 1573 Chimeric (antibody, V domains shown)
VH: EVKLEESGGGLVQPGGSMKLSCVASGFTFSNYYLNWVRQSPEKGLEWVADIRLKSNNYEKHYAESVKGRFTISRDDSKSSVYLQMNNLRAEDTGIYYCIREGDYFDYWGQGTTLTVSS
VL: NIVLTQSPASLAVSLGQRATISCRASESVDSFGATFMHWYQQKPGQPPKLLIYLASNLESGVPARFSGSGSRTDFTLTIDPVEADDAATYYCQQNNEDPYTFGGGTKLEIKR
notes: IgG; also called chimera 1573; 1573VH (chimeric) + 1573Vk (chimeric)
B16: 1573 mouse (antibody, V domains shown)
VH: B15 VH
VL: B15 VL
notes: Parental murine monoclonal antibody; also called mouse aPC monoclonal antibody 1573; HAPC1573

Each binder was assayed against T1, human activated protein C (human, UniProt P04070 43-197; P04070 212-461) (assay: SPR (Biacore)).
T1 construct: also called human aPC; human APC

Binder	Kd [nM]
B1	< 5
B2	< 5

What follows are binders tested against T1, human activated protein C (assay: SPR (Biacore), 1:1 binding model).

Binder	Kd [nM]	koff [s⁻¹]	kon [M⁻¹ s⁻¹]
B3	6.03	0.00844	1.4e+06
B4	5.75	0.00833	1.45e+06
B5	5.7	0.00818	1.44e+06
B6	6.49	0.00896	1.38e+06
B1	4.61	0.00624	1.35e+06
B7	4.52	0.00643	1.42e+06
B8	5.63	0.00815	1.45e+06
B2	3.8	0.00554	1.46e+06
B9	6.33	0.00857	1.36e+06
B10	4.69	0.00655	1.4e+06
B11	5.1	0.00772	1.52e+06
B12	5.94	0.00848	1.43e+06
B13	6.15	0.00845	1.37e+06
B14	6.13	0.00856	1.4e+06
B15	3.49	0.00811	2.32e+06
B16	5.49	0.0052	948000

Each binder was assayed against T2, cyno activated protein C (cyno (monkey)) (assay: SPR (Biacore), 1:1 binding model).
T2 construct: also called cyno aPC; cyno APC

Binder	Kd [nM]	koff [s⁻¹]	kon [M⁻¹ s⁻¹]
B3	16.1	0.0054	337000
B4	15.6	0.0042	269000
B5	14.2	0.0105	743000
B6	15.6	0.0042	269000
B1	16.4	0.00384	235000
B7	15.8	0.00373	236000
B8	15.2	0.00724	475000
B2	16.7	0.00402	240000
B9	18.5	0.00471	255000
B10	15	0.00343	229000
B11	14.2	0.0105	743000
B12	11.3	0.00707	627000
B13	20.2	0.00452	225000
B14	17.6	0.00524	299000
B15	13.8	0.00766	555000
B16	21.1	0.00725	344000

What follows are binders tested against T1, human activated protein C (assay: ELISA, coated antigen).

Binder	EC50 [nM]
B3	0.339
B4	0.627
B5	0.592
B6	0.687
B1	0.265
B7	0.233
B8	0.313
B2	0.369
B9	0.445
B10	0.236
B11	0.583
B12	0.274
B13	0.288
B14	0.225
B15	0.334

The binders below were run against T3, human Protein C (human, UniProt P04070 43-461) (assay: ELISA, coated antigen).
T3 construct: Zymogen used as negative control in the ELISA; also called human PC; hPC

Binder	binding result
B3	no binding (tested: 20 nM)
B4	no binding (tested: 20 nM)
B5	no binding (tested: 20 nM)
B6	no binding (tested: 20 nM)
B1	no binding (tested: 20 nM)
B7	no binding (tested: 20 nM)
B8	no binding (tested: 20 nM)
B2	no binding (tested: 20 nM)
B9	no binding (tested: 20 nM)
B10	no binding (tested: 20 nM)
B11	no binding (tested: 20 nM)
B12	no binding (tested: 20 nM)
B13	no binding (tested: 20 nM)
B14	no binding (tested: 20 nM)
B15	no binding (tested: 20 nM)

The binders below were run against T2, cyno activated protein C (assay: ELISA, coated antigen).

Binder	EC50 [nM]
B3	0.642
B4	1.21
B5	0.872
B6	1.47
B1	0.774
B7	1.23
B8	0.986
B2	0.865
B9	0.853
B10	0.804
B11	0.904
B12	0.9
B13	0.889
B14	0.984
B15	0.83
